One data set deals with T1, AfERG10A (Aspergillus fumigatus, UniProt B0XMC1).
T1 construct: gene erg10A; pGEX-6P1 GST tag cleaved by PreScission; E. coli BL21(DE3)/pLysS; homotetramer
T1 sequence (B0XMC1 36-433): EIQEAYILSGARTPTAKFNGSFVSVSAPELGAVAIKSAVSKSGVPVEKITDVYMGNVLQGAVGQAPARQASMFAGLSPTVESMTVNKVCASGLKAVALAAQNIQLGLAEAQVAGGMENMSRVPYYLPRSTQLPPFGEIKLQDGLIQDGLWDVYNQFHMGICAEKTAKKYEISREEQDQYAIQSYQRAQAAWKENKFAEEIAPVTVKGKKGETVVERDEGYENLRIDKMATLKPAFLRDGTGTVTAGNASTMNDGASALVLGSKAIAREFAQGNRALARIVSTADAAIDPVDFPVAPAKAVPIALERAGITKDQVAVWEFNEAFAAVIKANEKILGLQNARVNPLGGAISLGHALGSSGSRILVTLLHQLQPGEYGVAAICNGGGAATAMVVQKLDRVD
The data set can be described thus: X-ray crystal structure of the complex, […] Å. The settings on record: crystals from 0.1 M HEPES pH 7.0, 2 M ammonium sulfate with CoA; CoA binding site.

Substrate in the data set “purified protein”: CC(=O)SCCNC(=O)CCNC(=O)[C@H](O)C(C)(C)COP(=O)(O)OP(=O)(O)OC[C@H]1O[C@@H](n2cnc3c(N)ncnc32)[C@H](O)[C@@H]1OP(=O)(O)O
The data set can be described thus: purified protein. Format: biochemical, Aspergillus fumigatus. The settings on record: 50 mM Tris-HCl pH 7.4, 0.2 mM NADH, 0.5 mM DTT, 30°C.

Substrate in data set [1]: CC(C)(COP(=O)(O)OP(=O)(O)OC[C@H]1O[C@@H](n2cnc3c(N)ncnc32)[C@H](O)[C@@H]1OP(=O)(O)O)[C@@H](O)C(=O)NCCC(=O)NCCS
The data set can be described thus: Mg2+ method, degradative (thiolysis) reaction, steady-state kinetics. Format: biochemical, Aspergillus fumigatus. The settings on record: acetoacetyl-CoA co-substrate (10 μM in the mixture as printed), 50 mM Tris-HCl pH 8.1, 20 mM MgCl2, 40 mM KCl, 30°C. The source says: (§1) Mg2+ method, degradative (thiolysis) reaction, steady-state kinetics on AfERG10A

Substrate in data set [2]: CC(=O)CC(=O)SCCNC(=O)CCNC(=O)[C@H](O)C(C)(C)COP(=O)(O)OP(=O)(O)OC[C@H]1O[C@@H](n2cnc3c(N)ncnc32)[C@H](O)[C@@H]1OP(=O)(O)O
The data set is described as above. The settings on record: CoA co-substrate (60 μM in the mixture as printed), 50 mM Tris-HCl pH 8.1, 20 mM MgCl2, 40 mM KCl, 30°C. The data set is classed as biochemical, Aspergillus fumigatus.
Excerpt: as §1

Data set [3] deals with the molecule itself. Put plainly: crystal structure; apo and CoA-complexed AfERG10A; sitting drop at room temperature, 0.1 M HEPES (pH 7.0), 2 M ammonium sulfate, in the absence or presence of CoA; refined to 2.4 Å; four molecules in one asymmetric unit.

In the case of `CC(C)(COP(=O)(O)OP(=O)(O)OC[C@H]1O[C@@H](n2cnc3c(N)ncnc32)[C@H](O)[C@@H]1OP(=O)(O)O)[C@@H](O)C(=O)NCCC(=O)NCCS` [CoA], the “X-ray crystal structure of the complex, 2.4 Å” value at AfERG10A was “structures of apo- and CoA-complexed AfERG10A were determined”.

B1: Aspergillus fumigatus acetyl-CoA acetyltransferase AfERG10A (residues 36 to 433) (enzyme, UniProt B0XMC1 36-433, looked up)
chain: EIQEAYILSGARTPTAKFNGSFVSVSAPELGAVAIKSAVSKSGVPVEKITDVYMGNVLQGAVGQAPARQASMFAGLSPTVESMTVNKVCASGLKAVALAAQNIQLGLAEAQVAGGMENMSRVPYYLPRSTQLPPFGEIKLQDGLIQDGLWDVYNQFHMGICAEKTAKKYEISREEQDQYAIQSYQRAQAAWKENKFAEEIAPVTVKGKKGETVVERDEGYENLRIDKMATLKPAFLRDGTGTVTAGNASTMNDGASALVLGSKAIAREFAQGNRALARIVSTADAAIDPVDFPVAPAKAVPIALERAGITKDQVAVWEFNEAFAAVIKANEKILGLQNARVNPLGGAISLGHALGSSGSRILVTLLHQLQPGEYGVAAICNGGGAATAMVVQKLDRVD
notes: AfERG10A (AFUB_000550), mitochondrial acetyl-CoA acetyltransferase of Aspergillus fumigatus, whole protein 433 amino acids; Cloned from cDNA into pGEX-6P1 with primers P13/P14; After PreScission cleavage a few vector residues probably remain at the N-terminus; Primer P13 carries a Lys codon (AAA) before GAG (Glu), so the construct may begin one residue earlier or have an added Lys; also called …
For the molecule B1, the Michaelis-Menten constant (Km) (commonly the substrate concentration at which the rate is half of its maximum) in the data set “purified protein” came out at 232 ± 49 µM; in data set [1], 26 ± 5 µM; in data set [2], 43 ± 9 µM. For the same molecule, the kcat (as a rule, the maximal rate divided by the concentration of active sites) in the data set “purified protein” was 7 ± 0.4 s⁻¹; in data set [1], 5 ± 0.2 s⁻¹; in data set [2], 3 ± 0.2 s⁻¹. The stoichiometry N (usually a count of units in the complex or per binding partner) in data set [3] came out at 4.

Values taken from publication PMC7082573, “Aspergillus fumigatus Mitochondrial Acetyl Coenzyme A Acetyltransferase as an Antifungal Target” (Applied and Environmental Microbiology, 2020).
